Reference: patent US20240076386A1 (Pfizer, published 2024)

Legend:
[1] = molecular target: T1, cynomolgus monkey E-selectin, cell-surface expressed (cynomolgus monkey, UniProt P16581 22-610 (human entry)); assay: competition ELISA on CHO cells vs sialyl Lewis ligand, further assays
T1 construct: also called CHO-cynomolgus monkey E-selectin cells; cynomolgus monkey CHO-E
T1 chain: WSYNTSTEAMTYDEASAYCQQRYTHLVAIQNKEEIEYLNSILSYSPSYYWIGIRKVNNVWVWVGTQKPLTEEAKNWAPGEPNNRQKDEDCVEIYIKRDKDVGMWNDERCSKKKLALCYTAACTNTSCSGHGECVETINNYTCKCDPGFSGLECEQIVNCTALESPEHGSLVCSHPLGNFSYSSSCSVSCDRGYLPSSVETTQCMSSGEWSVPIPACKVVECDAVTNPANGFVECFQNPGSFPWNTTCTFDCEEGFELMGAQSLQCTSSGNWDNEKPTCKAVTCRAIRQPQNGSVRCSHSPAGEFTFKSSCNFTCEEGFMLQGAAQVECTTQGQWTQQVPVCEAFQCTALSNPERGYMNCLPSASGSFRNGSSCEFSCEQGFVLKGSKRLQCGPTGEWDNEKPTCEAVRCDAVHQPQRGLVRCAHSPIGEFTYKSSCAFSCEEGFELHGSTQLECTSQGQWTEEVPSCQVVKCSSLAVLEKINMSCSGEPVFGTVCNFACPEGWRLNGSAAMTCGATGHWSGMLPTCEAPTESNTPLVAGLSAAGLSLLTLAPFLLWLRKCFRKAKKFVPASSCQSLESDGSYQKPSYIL
Experimental: (§1) CHO cells expressing E-selectin were seeded at 12,500 cells per well into a 96 well tissue culture plate and incubated at 37° C., 5% CO₂ for 48 hours to form a confluent monolayer. Plates were subsequently washed twice with 200 μL of calcium magnesium free PBS. Anti-E-selectin antibodies or an IgG1 isotype control (IgG control) were added to the assay in the presence of a small synthetic conjugate of biotinylated, sialyl Lewis A polyacrylamide (Carbosynth LLC, OS45446) or sialyl Lewis X polyacrylamide (Glycotech, 01-045) with streptavidin/horseradish peroxidase (100 μL total) and incubated at 37° C., 5% CO₂ for 2 hours. Plates were then washed twice with 200 μL of calcium and magnesium free PBS. Following the incubation, the cells were washed twice with 200 μL of wash buffer containing 2 mM of calcium chloride (50 mM TRIS [trisaminomethane], 150 mM sodium chloride; 0.05% polysorbate 20, pH 7.4; 2 mM calcium chloride). Signal was developed by adding 100 μL of 1-Step Ultra TMB substrate (Thermo Scientific, 34028) and incubating for 30 minutes at room temperature. Reactions were stopped using 2 M of sulfuric acid and absorbance was read at 450 nm (Spectramax M5e). Data were analyzed and graphed using GraphPad Prism software (Version 8.0.2).

[2] = molecular target: T2, human E-selectin, cell-surface expressed (human, UniProt P16581 22-610); assay: as above
T2 construct: also called CHO-human E-selectin cells; human CHO-E
T2 sequence: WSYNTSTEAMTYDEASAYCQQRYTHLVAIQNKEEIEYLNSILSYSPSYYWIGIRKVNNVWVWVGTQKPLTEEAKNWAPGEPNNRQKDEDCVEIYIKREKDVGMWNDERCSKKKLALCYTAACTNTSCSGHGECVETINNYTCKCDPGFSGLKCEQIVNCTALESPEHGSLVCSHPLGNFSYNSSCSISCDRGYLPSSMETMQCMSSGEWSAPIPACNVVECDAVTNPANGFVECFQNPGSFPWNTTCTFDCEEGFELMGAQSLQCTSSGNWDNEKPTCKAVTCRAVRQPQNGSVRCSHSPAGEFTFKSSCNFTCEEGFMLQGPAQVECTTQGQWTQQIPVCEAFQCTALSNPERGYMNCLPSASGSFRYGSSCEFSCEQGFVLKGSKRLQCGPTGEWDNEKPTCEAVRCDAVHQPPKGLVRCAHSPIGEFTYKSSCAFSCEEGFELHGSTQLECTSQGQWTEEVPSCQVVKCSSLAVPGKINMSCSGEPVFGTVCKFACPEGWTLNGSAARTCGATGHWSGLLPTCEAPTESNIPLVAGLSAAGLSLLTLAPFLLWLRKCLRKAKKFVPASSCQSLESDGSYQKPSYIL
Experimental: as §1

[3] = molecular target: T3, rabbit E-selectin (rabbit, UniProt P27113 24-495, limits assumed); assay: SPR (BIAcore), single sensorgram per selectin
T3 sequence (looked up): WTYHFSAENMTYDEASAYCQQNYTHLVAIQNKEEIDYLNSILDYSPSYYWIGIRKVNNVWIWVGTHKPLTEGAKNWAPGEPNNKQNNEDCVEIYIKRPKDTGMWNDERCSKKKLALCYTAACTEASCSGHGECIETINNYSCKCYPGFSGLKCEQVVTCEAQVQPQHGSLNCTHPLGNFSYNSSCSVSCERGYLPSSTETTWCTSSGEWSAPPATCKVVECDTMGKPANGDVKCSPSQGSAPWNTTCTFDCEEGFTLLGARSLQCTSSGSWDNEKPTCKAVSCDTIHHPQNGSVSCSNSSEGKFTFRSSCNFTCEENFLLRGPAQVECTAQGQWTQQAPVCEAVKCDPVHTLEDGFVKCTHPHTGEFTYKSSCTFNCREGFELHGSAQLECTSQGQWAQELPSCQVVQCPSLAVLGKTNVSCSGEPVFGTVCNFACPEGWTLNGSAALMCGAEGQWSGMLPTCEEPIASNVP

IC50 [1]: 1.49 nM | IC50 [2]: 2.33 nM | binding result [3]: no binding
B1: optimized anti-E-selectin antibody 1444 (antibody, human IgG1, kappa, V domains shown)
VH: EVQLVESGGGLVQPGGSLRLSCAASGYAIRSAYMHWVRQAPGKGLEWVARIDPANGNTIYVDSVTGRFTISADNAKNSAYLQMNSLRAEDTAVYYCAMDLYSTSEYWGQGTLVTVSS
VL: DIQMTQSPSSLSASVGDRVTITCKTSQNIERYLNWYQQKPGKAPKLLIYAASSLQSGVPSRFSGSGSGTDFTLTISSLQPEDFATYFCLQDNAWPLTFGQGTKVEIKR
notes: effector-null human IgG1, kappa
